B1: RelF antitoxin, recombinant His-tagged (natural protein)
chain: MRILPISTIKGKLNEFVDAVSSTQDQITITKNGAPAAVLVGADEWESLQETLYWLAQPGIRESIAEADADIASGRTYGEDEIRAEFGVPRRPH
B2: RelB antitoxin, recombinant His-tagged (natural protein)
chain: MAVVPLGEVRNRLSEYVAEVELTHERITITRHGHPAAVLISADDLASIEETLEVLRTPGASEAIREGLADVAAGRFVSNDEIRNRYTAR
B3: RelJ antitoxin, recombinant His-tagged (natural protein)
chain: MSISASEARQRLFPLIEQVNTDHQPVRITSRAGDAVLMSADDYDAWQETVYLLRSPENARRLMEAVARDKAGHSAFTKSVDELREMAGGEE

Biological target: the molecule itself
Test: native gel or EMSA

Protein	stoichiometry N	binding result
B1	4	
B2		binds
B3	4	
